By Kd is commonly meant the free concentration of one partner at which half of the binding sites on the other are occupied at equilibrium, for simple one-to-one binding. Higher therefore signals lower affinity. One may read the koff as a measure of how fast the partners let go of each other.

This note sets out measurements from paper PMC10268213 (2023).

For experiment [1], the target named is T1, SARS-CoV-2 receptor-binding domain (RBD) (SARS-CoV-2, UniProt P0DTC2). The experiment can be described thus: SPR. Background: In SPR one partner is held on a chip, and binding of the other changes the refractive index at the surface.
In experiment [2] the target is T1, SARS-CoV-2 receptor-binding domain (RBD). The experiment can be described thus: SPR. The source holds these as a separate data set.

B1: Nb-C4-240 nanobody (VHH)
VHH: EVQLQESGGGLVQPGGSLRLSCAASGFTFSSYAMGWYRQAPGKEREWVCAISGSGGSTYYADSVKGRFTCSRDNSKNTLYLQMNSLKPEDTAVYYCARVVSYYDQTGFVYWQSYDYWGQGTQVTVSS
B1 came in with a Kd in experiment [1] of 1060 nM. In experiment [2], this molecule had a koff of 0.969 s⁻¹.

B2: Nb-C4-225 nanobody (VHH)
VHH: EVQLQESGGGLVQPGGSLRLSCAASGFTFSSYAMGWYRQAPGKEREWVCAISGSGGSTYYADSVKGRFTCSRDNSKNTLYLQMNSLKPEDTAVYYCARGSFYYTYGGSVGFDAFDYWGQGTQVTVSS
In the case of B2, the Kd in experiment [1] was determined as 143 nM. For the same molecule, the koff in experiment [2] was 0.0057 s⁻¹.

B3: Nb-C4-255 nanobody (VHH)
VHH: EVQLQESGGGLVQPGGSLRLSCAASGFTFSSYAMGWYRQAPGKEREWVCAISGSGGSTYYADSVKGRFTCSRDNSKNTLYLQMNSLKPEDTAVYYCARQAWYYSPYGGPEFEAFDYWGQGTQVTVSS
B3 came in with a Kd in experiment [1] of 2950 nM. Besides, the off-rate constant (koff) in experiment [2] was 0.295 s⁻¹.

B4: LM18 nanobody (VHH)
VHH: EVQLQESGGGLVQPGGSLRLSCAASGFTFSSYALGWYRQAPGKEREWVCAISGSGGSTYYADSVKGRFTCSRDNSKNTLYLQMNSLKPEDTAVYYCARVYQFYGARDYGYPYDFDYWGQGTQVTVSS
For the molecule B4, the Kd in experiment [1] came out at 391 nM. Further, the koff in experiment [2] was 0.0944 s⁻¹.

B5: Nb-C2-136 nanobody (VHH)
VHH: EVQLQESGGGLVQPGGSLRLSCAASGFTFSSYAMGWYRQAPGKEREWVCAISGSGGSTYYADSVKGRFTCSRDNSKNTLYLQMNSLKPEDTAVYYCARYGGPYDPTDSTYAFDYWGQGTQVTVSS
With B5, in experiment [1], the Kd was determined as 382 nM. Besides, the koff in experiment [2] turned out to be 0.032 s⁻¹.
